# Results: paper PMC11853100 (2025)
# T1: Pneumolysin (Ply) (Streptococcus pneumoniae, UniProt Q04IN8)
# T1 chain: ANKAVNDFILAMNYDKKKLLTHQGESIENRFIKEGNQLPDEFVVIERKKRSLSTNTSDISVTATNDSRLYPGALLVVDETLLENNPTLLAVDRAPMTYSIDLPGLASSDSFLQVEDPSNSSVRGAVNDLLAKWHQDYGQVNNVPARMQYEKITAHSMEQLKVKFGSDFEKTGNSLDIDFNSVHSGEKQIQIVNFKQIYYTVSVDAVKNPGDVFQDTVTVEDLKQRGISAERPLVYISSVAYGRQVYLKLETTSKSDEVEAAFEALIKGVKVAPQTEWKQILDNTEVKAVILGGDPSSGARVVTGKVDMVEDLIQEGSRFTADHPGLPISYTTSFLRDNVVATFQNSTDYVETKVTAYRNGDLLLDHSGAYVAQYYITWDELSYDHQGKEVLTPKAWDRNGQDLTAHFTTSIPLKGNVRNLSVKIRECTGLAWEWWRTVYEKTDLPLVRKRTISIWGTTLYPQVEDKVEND
# Biological target: T1, Pneumolysin (Ply)
# Test: ITC; given as Ka
binder,measurement,value
SpnPrsA (protein) CSKGSEGADLISMKGDVITEHQFYEQVKNNPSAQQVLLNMTIQKVFEKQYGSELDDKEVDDTIAEEKKQYGENYQRVLSQAGMTLETRKAQIRTSKLVELAVKKVAEAELTDEAYKKAFDEYTPDVTAQIIRLNNEDKAKEVLEKAKAEGADFAQLAKDNSTDEKTKENGGEITFDSASTEVPEQVKKAAFALDVDGVSDVITATGTQAYSSQYYIVKLTKKTEKSSNIDDYKEKLKTVILTQKQNDSTFVQSIIGKELQAANIKVKDQAFQNIFTQYIGGGDSSSSSSTSNE,Kd,119 nM
